Source: publication PMC2428106, “Regulation of intestinal hPepT1 (SLC15A1) activity by phosphodiesterase inhibitors is via inhibition of NHE3 (SLC9A3)” (Biochimica et Biophysica Acta, 2007)

Substrate: CN(CC(=O)O)C(=O)CN
Assay: cells, lysate or membranes
Format: cell-based, Homo sapiens

B1: hPepT1 (SLC15A1) (Homo sapiens) (protein)
chain: MGMSKSHSFFGYPLSIFFIVVNEFCERFSYYGMRAILILYFTNFISWDDNLSTAIYHTFVALCYLTPILGALIADSWLGKFKTIVSLSIVYTIGQAVTSVSSINDLTDHNHDGTPDSLPVHVVLSLIGLALIALGTGGIKPCVSAFGGDQFEEGQEKQRNRFFSIFYLAINAGSLLSTIITPMLRVQQCGIHSKQACYPLAFGVPAALMAVALIVFVLGSGMYKKFKPQGNIMGKVAKCIGFAIKNRFRHRSKAFPKREHWLDWAKEKYDERLISQIKMVTRVMFLYIPLPMFWALFDQQGSRWTLQATTMSGKIGALEIQPDQMQTVNAILIVIMVPIFDAVLYPLIAKCGFNFTSLKKMAVGMVLASMAFVVAAIVQVEIDKTLPVFPKGNEVQIKVLNIGNNTMNISLPGEMVTLGPMSQTNAFMTFDVNKLTRINISSPGSPVTAVTDDFKQGQRHTLLVWAPNHYQVVKDGLNQKPEKGENGIRFVNTFNELITITMSGKVYANISSYNASTYQFFPSGIKGFTISSTEIPPQCQPNFNTFYLEFGSAYTYIVQRKNDSCPEVKVFEDISANTVNMALQIPQYFLLTCGEVVFSVTGLEFSYSQAPSNMKSVLQAGWLLTVAVGNIIVLIVAGAGQFSKQWAEYILFAALLLVVCVIFAIMARFYTYINPAEIEAQFDEDEKKNRLEKSNPYFMSGANSQKQM
Km: 1000 ± 200 µM
